Laboratory results reported in the array DNA melting data of Ke et al..

Experiment: melting temperature; melt of duplexes
Details: sodium 0.0675 M; strand 1 µM

First: CGACGTGCCTAATGTGCTG+CAGCACATGAAGCACGTCG ((((((((.(.((((((((+)))))))).).))))))))
Second: CGACGTGCACAATGTGCTG+CAGCACATATGGCACGTCG ((((((((...((((((((+))))))))...))))))))
The Tm of the first is higher: 51 °C for the first, 47.7 °C for the second.

First: CGACGTGCGCGATGTGCTG+CAGCACATCCAGCACGTCG ((((((((..(((((((((+)))))))))..))))))))
Second: CGACGTGCTATATGTGCTG+CAGCACATGGGGCACGTCG ((((((((...((((((((+))))))))...))))))))
The Tm of the first is higher: 55.6 °C for the first, 51 °C for the second.

Going from “CGACGTGCCGCATGTGCTG+CAGCACATGCGGCACGTCG (((((((((((((((((((+)))))))))))))))))))” to “CGACGTGCGAGATGTGCTG+CAGCACATGCCGCACGTCG (((((((((..((((((((+))))))))..)))))))))”, the Tm falls from 69.1 °C to 55.4 °C.

Going from “CGACGTGCCACATGTGCTG+CAGCACATCTTGCACGTCG ((((((((.(.((((((((+)))))))).).))))))))” to “CGACGTGCCCTATGTGCTG+CAGCACATTCGGCACGTCG (((((((((..((((((((+))))))))..)))))))))”, the Tm rises from 47.5 °C to 52.9 °C.

Going from “CGACGTGCCCAATGTGCTG+CAGCACATCGTGCACGTCG ((((((((.(.((((((((+)))))))).).))))))))” to “CGACGTGCACAATGTGCTG+CAGCACATATCGCACGTCG ((((((((...((((((((+))))))))...))))))))”, the Tm falls from 45.8 °C to 44.6 °C.

Going from “CGACGTGCTTGATGTGCTG+CAGCACATTGTGCACGTCG ((((((((...((((((((+))))))))...))))))))” to “CGACGTGCCGGATGTGCTG+CAGCACATAATGCACGTCG ((((((((...((((((((+))))))))...))))))))”, the Tm rises from 47.2 °C to 48.6 °C.

First: CGACGTGCTGGATGTGCTG+CAGCACATAATGCACGTCG ((((((((...((((((((+))))))))...))))))))
Second: CGACGTGCGAAATGTGCTG+CAGCACATTACGCACGTCG (((((((((.(((((((((+))))))))).)))))))))
The Tm of the first is lower: 50.7 °C for the first, 58.6 °C for the second.

Compared with “CGACGTGCTGGATGTGCTG+CAGCACATCCGGCACGTCG ((((((((.((((((((((+)))))))))).))))))))”, “CGACGTGCCCCATGTGCTG+CAGCACATACTGCACGTCG ((((((((...((((((((+))))))))...))))))))” is lower in Tm: 62.9 °C for the first, 45.9 °C for the second.

First: CGACGTGCAGTATGTGCTG+CAGCACATTCGGCACGTCG ((((((((.(.((((((((+)))))))).).))))))))
Second: CGACGTGCGGCATGTGCTG+CAGCACATGTTGCACGTCG ((((((((..(((((((((+)))))))))..))))))))
The Tm of the first is lower: 53.1 °C for the first, 57.6 °C for the second.

Going from “CGACGTGCAGAATGTGCTG+CAGCACATATCGCACGTCG ((((((((...((((((((+))))))))...))))))))” to “CGACGTGCTGTATGTGCTG+CAGCACATGGAGCACGTCG (((((((((..((((((((+))))))))..)))))))))”, the Tm rises from 50.9 °C to 55 °C.

Compared with “CGACGTGCCTGATGTGCTG+CAGCACATGGTGCACGTCG ((((((((...((((((((+))))))))...))))))))”, “CGACGTGCGGTATGTGCTG+CAGCACATCCCGCACGTCG ((((((((((.((((((((+)))))))).))))))))))” is higher in Tm: 47.4 °C for the first, 59.9 °C for the second.

Going from “CGACGTGCGTCATGTGCTG+CAGCACATTCTGCACGTCG ((((((((...((((((((+))))))))...))))))))” to “CGACGTGCTGGATGTGCTG+CAGCACATCGTGCACGTCG ((((((((..(((((((((+)))))))))..))))))))”, the Tm rises from 49.2 °C to 53.2 °C.

Compared with “CGACGTGCGGCATGTGCTG+CAGCACATAGCGCACGTCG (((((((((..((((((((+))))))))..)))))))))”, “CGACGTGCAAGATGTGCTG+CAGCACATCACGCACGTCG ((((((((..(((((((((+)))))))))..))))))))” is lower in Tm: 55.9 °C for the first, 53.8 °C for the second.

Compared with “CGACGTGCGGGATGTGCTG+CAGCACATAAGGCACGTCG ((((((((...((((((((+))))))))...))))))))”, “CGACGTGCGGAATGTGCTG+CAGCACATGCGGCACGTCG ((((((((.(.((((((((+)))))))).).))))))))” is higher in Tm: 51.1 °C for the first, 54.3 °C for the second.

Compared with “CGACGTGCCAGATGTGCTG+CAGCACATTGAGCACGTCG ((((((((...((((((((+))))))))...))))))))”, “CGACGTGCTCCATGTGCTG+CAGCACATTAAGCACGTCG (((((((((..((((((((+))))))))..)))))))))” is lower in Tm: 52.1 °C for the first, 49.4 °C for the second.

Compared with “CGACGTGCCTCATGTGCTG+CAGCACATGATGCACGTCG ((((((((.((((((((((+)))))))))).))))))))”, “CGACGTGCTTGATGTGCTG+CAGCACATAATGCACGTCG ((((((((.(.((((((((+)))))))).).))))))))” is lower in Tm: 56.7 °C for the first, 52.1 °C for the second.

Going from “CGACGTGCGTAATGTGCTG+CAGCACATGGAGCACGTCG ((((((((...((((((((+))))))))...))))))))” to “CGACGTGCTGCATGTGCTG+CAGCACATACGGCACGTCG ((((((((.(.((((((((+)))))))).).))))))))”, the Tm falls from 60.7 °C to 53.6 °C.

First: CGACGTGCCTTATGTGCTG+CAGCACATGCTGCACGTCG ((((((((...((((((((+))))))))...))))))))
Second: CGACGTGCCCCATGTGCTG+CAGCACATTGGGCACGTCG ((((((((((.((((((((+)))))))).))))))))))
The Tm of the first is lower: 45.1 °C for the first, 58.5 °C for the second.

Going from “CGACGTGCCGTATGTGCTG+CAGCACATCACGCACGTCG ((((((((...((((((((+))))))))...))))))))” to “CGACGTGCCAGATGTGCTG+CAGCACATTATGCACGTCG ((((((((...((((((((+))))))))...))))))))”, the Tm falls from 51.2 °C to 50.5 °C.

Compared with “CGACGTGCCTAATGTGCTG+CAGCACATTCCGCACGTCG ((((((((..(((((((((+)))))))))..))))))))”, “CGACGTGCTTGATGTGCTG+CAGCACATGGAGCACGTCG (((((((((..((((((((+))))))))..)))))))))” is higher in Tm: 49.7 °C for the first, 54 °C for the second.

Compared with “CGACGTGCGTGATGTGCTG+CAGCACATGTCGCACGTCG (((((((((..((((((((+))))))))..)))))))))”, “CGACGTGCAGAATGTGCTG+CAGCACATCAGGCACGTCG ((((((((...((((((((+))))))))...))))))))” is lower in Tm: 55.2 °C for the first, 51.1 °C for the second.

Compared with “CGACGTGCTGCATGTGCTG+CAGCACATAATGCACGTCG ((((((((...((((((((+))))))))...))))))))”, “CGACGTGCTTGATGTGCTG+CAGCACATTACGCACGTCG ((((((((.(.((((((((+)))))))).).))))))))” is lower in Tm: 50.7 °C for the first, 50.1 °C for the second.

Compared with “CGACGTGCAACATGTGCTG+CAGCACATGGTGCACGTCG (((((((((.(((((((((+))))))))).)))))))))”, “CGACGTGCTGCATGTGCTG+CAGCACATCTCGCACGTCG ((((((((...((((((((+))))))))...))))))))” is lower in Tm: 60 °C for the first, 49.2 °C for the second.

Going from “CGACGTGCGGTATGTGCTG+CAGCACATGTCGCACGTCG (((((((((..((((((((+))))))))..)))))))))” to “CGACGTGCTTCATGTGCTG+CAGCACATAACGCACGTCG ((((((((.(.((((((((+)))))))).).))))))))”, the Tm falls from 57.1 °C to 49.3 °C.

First: CGACGTGCGAGATGTGCTG+CAGCACATTACGCACGTCG (((((((((..((((((((+))))))))..)))))))))
Second: CGACGTGCTGGATGTGCTG+CAGCACATAGCGCACGTCG ((((((((...((((((((+))))))))...))))))))
The Tm of the first is higher: 55.4 °C for the first, 49.3 °C for the second.

Compared with “CGACGTGCGACATGTGCTG+CAGCACATATTGCACGTCG ((((((((.(.((((((((+)))))))).).))))))))”, “CGACGTGCGGGATGTGCTG+CAGCACATCAGGCACGTCG ((((((((..(((((((((+)))))))))..))))))))” is higher in Tm: 51.5 °C for the first, 56.2 °C for the second.

First: CGACGTGCTGCATGTGCTG+CAGCACATTGAGCACGTCG (((((((((..((((((((+))))))))..)))))))))
Second: CGACGTGCACAATGTGCTG+CAGCACATGTGGCACGTCG ((((((((...((((((((+))))))))...))))))))
The Tm of the first is higher: 52.2 °C for the first, 51.2 °C for the second.

First: CGACGTGCGATATGTGCTG+CAGCACATCACGCACGTCG (((((((((..((((((((+))))))))..)))))))))
Second: CGACGTGCCGTATGTGCTG+CAGCACATTACGCACGTCG ((((((((...((((((((+))))))))...))))))))
The Tm of the first is higher: 53.7 °C for the first, 50.9 °C for the second.

Going from “CGACGTGCTCAATGTGCTG+CAGCACATATGGCACGTCG ((((((((...((((((((+))))))))...))))))))” to “CGACGTGCATTATGTGCTG+CAGCACATATAGCACGTCG ((((((((..(((((((((+)))))))))..))))))))”, the Tm rises from 50.5 °C to 52.3 °C.

Compared with “CGACGTGCGTAATGTGCTG+CAGCACATCCCGCACGTCG (((((((((..((((((((+))))))))..)))))))))”, “CGACGTGCCACATGTGCTG+CAGCACATAATGCACGTCG ((((((((...((((((((+))))))))...))))))))” is lower in Tm: 53.5 °C for the first, 47.5 °C for the second.

Going from “CGACGTGCTGGATGTGCTG+CAGCACATACTGCACGTCG ((((((((.(.((((((((+)))))))).).))))))))” to “CGACGTGCGTAATGTGCTG+CAGCACATGTTGCACGTCG ((((((((...((((((((+))))))))...))))))))”, the Tm falls from 56.3 °C to 51.7 °C.

Going from “CGACGTGCAAAATGTGCTG+CAGCACATGCAGCACGTCG ((((((((...((((((((+))))))))...))))))))” to “CGACGTGCGAGATGTGCTG+CAGCACATTTAGCACGTCG ((((((((.(.((((((((+)))))))).).))))))))”, the Tm falls from 53.8 °C to 53.3 °C.

Compared with “CGACGTGCCCCATGTGCTG+CAGCACATGTAGCACGTCG ((((((((..(((((((((+)))))))))..))))))))”, “CGACGTGCGAGATGTGCTG+CAGCACATGCTGCACGTCG ((((((((...((((((((+))))))))...))))))))” is lower in Tm: 51.9 °C for the first, 50.4 °C for the second.

Compared with “CGACGTGCTGCATGTGCTG+CAGCACATTCGGCACGTCG ((((((((.(.((((((((+)))))))).).))))))))”, “CGACGTGCCGGATGTGCTG+CAGCACATGTCGCACGTCG ((((((((...((((((((+))))))))...))))))))” is lower in Tm: 53.2 °C for the first, 49.4 °C for the second.

Going from “CGACGTGCGCTATGTGCTG+CAGCACATTAAGCACGTCG ((((((((...((((((((+))))))))...))))))))” to “CGACGTGCTTGATGTGCTG+CAGCACATATAGCACGTCG (((((((((..((((((((+))))))))..)))))))))”, the Tm rises from 52.8 °C to 54 °C.

Compared with “CGACGTGCATCATGTGCTG+CAGCACATGCTGCACGTCG (((((((((.(((((((((+))))))))).)))))))))”, “CGACGTGCGTGATGTGCTG+CAGCACATCGGGCACGTCG ((((((((..(((((((((+)))))))))..))))))))” is higher in Tm: 55.8 °C for the first, 57.5 °C for the second.
